Measurements: patent US20250346890A1, “LEUKEMIA TREATMENT” (Deutsches Krebsforschungszentrum, priority 2019, published 2025)

What was measured:
ZNRF3 and ALK3^ECD = molecular target: T1, ZNRF3 and ALK3^ECD (Homo sapiens, UniProt P36894+Q9ULT6); assay: In vitro binding assay for ZNRF3 and ALK3^ECD; details: plates coated with ZNRF3 Fc, ALK3^ECD-AP preincubated with the protein
T1 construct: purchased R&D systems 7994-RF
Experimental: (§1) High binding 96-well plates (Greiner M5811) were coated with 2 μg ml^−1 of recombinant human RSPO1 (Peprotech 120-38), RSPO2 (Peprotech 120-43), RSPO3 (Peprotech 120-44) or FGF8b (Peprotech 100-25) recombinant protein reconstituted in bicarbonate coating buffer (50 mM NaHCO3, pH 9.6) overnight at 4° C. Coated wells were washed three times with TBST (TBS, 0.1% Tween-20) and blocked with 5% BSA in TBST for 1 hour at room temperature. 1.5 U ml^−1 of ALK3^ECD-AP or control conditioned medium was incubated overnight at 4° C. Wells were washed six times with TBST and bound AP activity was measured by the chemiluminescent SEAP Reporter Gene Assay kit (Abcam ab 133077). For ZNRF3-ALK3 binding assay, plates were coated with recombinant human ZNRF3 Fc Chimera protein (R&D systems 7994-RF). ALK3^ECD-AP was preincubated with RSPO2-Flag, RSPO2^ΔTSP-Flag conditioned medium or recombinant RSPO protein prior to treatment. Control conditioned medium and vesicles were used as control. […] Statistical analyses show unpaired t-tests.

ID1 = assay: qRT-PCR analysis of ID1 in HEPG2 cells; format: cell-based, human; details: BMP4
Experimental: Cultured cells were lysed in Macherey-Nagel RAI buffer containing 1% β-mercaptoethanol and total RNAs were isolated using NucleoSpin RNA isolation kit (Macherey-Nagel 740955). Reverse transcription and PCR amplification were performed. Primers used in this study are listed in Supplementary Table 1. Graphs show relative gene expressions to GAPDH. […] Statistical analyses were performed using PRISM7 software with unpaired t-test or one-way ANOVA test.

Smad1 = assay: Western blot of pSmad1 and tSmad1 in HEPG2 cells; format: cell-based, human
Experimental: Cultured cells were rinsed with cold PBS and lysed in Triton lysis buffer ([…] Tris-Cl, pH 7.5, 1% Triton X-100, 150 mM NaCl, 1 mM EDTA, 1 mM EGTA, 1 mM β-glycerophosphate, 1 mM Na3 VO4) or RIPA buffer with complete Protease Inhibitor Cocktail (Roche 11697498001). Lysates were mixed with Laemmli buffer with β-mercaptoethanol and boiled at 95° C. for 5 min to prepare SDS-PAGE samples. Western blot images were acquired with SuperSignal West pico ECL (ThermoFisher 34580) or Clarity Western ECL (Biorad 1705061) using LAS-3000 system (FujiFilm). Quantification of blots was done using ImageJ software.

ALK3RD = molecular target: T2, ALK3RD (Homo sapiens, UniProt P36894, Q233D); assay: BRE reporter assay in HEPG2 cells with constitutively active ALK3; format: cell-based; details: RSPO treatment
T2 construct: expressed in transfected cells; host or cells: HEPG2
From the text: Alkaline phosphatase (AP) fusions with RSPOs (human RSPO1^ΔC-AP-pCDNA3, RSPO2^ΔC-AP-pCDNA3, RSPO2^ΔC-AP-pCS2+, RSPO3^ΔC-AP-pCDNA3, murine RSPO4^ΔC-pCDNA3) were generated by replacing the C-terminal domain (ΔC) by AP and used to produce conditioned media. Human RSPO2 wild-type (RSPO2), Furin1 and Furin2 deletion mutants (RSPO2^ΔFU), and TSP1 domain deletion mutant (RSPO2^ΔTSP) are ORFs lacking the C-terminal domain, C-terminally tagged with a Flag-tag and subcloned into pCS2+. R1-TSP^R2, R1-TSP^R2-AP and R1-TSP^R2-Flag plasmids were generated by fusion PCR and cloned in pCS2+. Conditioned media from all RSPO constructs were adjusted to equal concentration by western blot and AP activity measurement, and further validated by WNT reporter assay using HEK293T cells. The extracellular domain of ALK3 (ALK3^ECD) was subcloned in AP-pCS2+ for generating conditioned medium and used in in vitro binding assays. Constitutively active forms of ALK2,3,6 (ALK^QD) were generated by Gln-Asp mutations as described in Fujii et al. (1999), Mol Biol Cell 10, 3801-3813, doi: 10.1091/mbc.10.11.3801. HA-tagged ALK3 was a gift from Dr. D. Koinuma (Goto et al. (2007), J Biol Chem 282, 20603-20611, doi: 10.1074/jbc.M702100200). For Xenopus mRNA microinjection, Xenopus laevis BMP4-pCS2+, myc-tagged RSPO2^ΔC-myc-pCS2+, RSPO2^ΔFU-myc-pCS2+ and RSPO2^ΔTSP-myc-pCS2+ plasmids, DNALK3-pCS2+, membrane-RFP, EYFP-tagged human ALK3-pCS2+ were used for in vitro transcription. Human ZNRF3 and ZNRF3^ΔRING constructs were gifts from Dr. F. Cong (Novartis; Hao et al. (2012), Nature 485, 195-200, doi: 10.1038/nature11019), and ORFs were subcloned in flag-pCS2+ for in vitro transcription.
BRE luciferase assays were executed using 300,000 ml^−1 of HEPG2 cells in 24-well plates. PGL3-BRE-Luciferase (500 ng ml^−1) and pRL-TK-Renilla plasmids (50 ng ml^−1) were transfected using Lipofectamine 3000. […] Luciferase activity was measured with the Dual luciferase reporter assay system (Promega E1960). Firefly luminescence (BRE) was normalized to Renilla. […]

BMP4 signaling = assay: BRE reporter assay in HEPG2 cells stimulated by BMP4; format: cell-based, human
Experimental: BRE luciferase assays were executed using 300,000 ml^−1 of HEPG2 cells in 24-well plates. PGL3-BRE-Luciferase (500 ng ml^−1) and pRL-TK-Renilla plasmids (50 ng ml^−1) were transfected using Lipofectamine 3000. After 24 hours, cells were serum starved 2 hours and stimulated 14-16 hours with 80 ng ml^−1 recombinant human BMP4 protein (R&D systems 314-BP) along with AP tagged RSPO1-4 or flag tagged RSPO1-3 conditioned medium. Luciferase activity was measured with the Dual luciferase reporter assay system (Promega E1960). Firefly luminescence (BRE) was normalized to Renilla. TOPFlash luciferase assays were carried out as previously described (Berger et al. (2017), EMBO Rep 18, 712-725, doi: 10.15252/embr.201643585). […] Statistical analyses were made with the PRISM7 software using unpaired t-test or one-way ANOVA test. Not significant (ns) P>0.05, *P<0.05, **P<0.01, ***P<0.001, and ****P<0.0001.

[1] = molecular target: T3, extracellular domain of ALK3 (Homo sapiens, UniProt P36894); assay: In vitro binding assay RSPO / ALK3^ECD (Scatchard plot)
T3 construct: made in house; host or cells: HEK293T (conditioned medium)
Experimental: as §1

T1 sequence (Q9ULT6 56-219 limits assumed): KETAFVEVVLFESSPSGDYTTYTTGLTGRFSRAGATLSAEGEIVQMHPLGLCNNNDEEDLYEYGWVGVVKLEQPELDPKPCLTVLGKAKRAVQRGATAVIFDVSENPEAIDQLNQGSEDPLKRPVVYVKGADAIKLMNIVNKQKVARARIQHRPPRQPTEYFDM
T1 sequence (P36894 24-152 limits assumed): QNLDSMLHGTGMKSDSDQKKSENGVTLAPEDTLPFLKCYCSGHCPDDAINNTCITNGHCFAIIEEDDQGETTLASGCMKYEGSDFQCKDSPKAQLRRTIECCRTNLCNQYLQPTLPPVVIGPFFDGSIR
T2 sequence (P36894 24-532 Q233D): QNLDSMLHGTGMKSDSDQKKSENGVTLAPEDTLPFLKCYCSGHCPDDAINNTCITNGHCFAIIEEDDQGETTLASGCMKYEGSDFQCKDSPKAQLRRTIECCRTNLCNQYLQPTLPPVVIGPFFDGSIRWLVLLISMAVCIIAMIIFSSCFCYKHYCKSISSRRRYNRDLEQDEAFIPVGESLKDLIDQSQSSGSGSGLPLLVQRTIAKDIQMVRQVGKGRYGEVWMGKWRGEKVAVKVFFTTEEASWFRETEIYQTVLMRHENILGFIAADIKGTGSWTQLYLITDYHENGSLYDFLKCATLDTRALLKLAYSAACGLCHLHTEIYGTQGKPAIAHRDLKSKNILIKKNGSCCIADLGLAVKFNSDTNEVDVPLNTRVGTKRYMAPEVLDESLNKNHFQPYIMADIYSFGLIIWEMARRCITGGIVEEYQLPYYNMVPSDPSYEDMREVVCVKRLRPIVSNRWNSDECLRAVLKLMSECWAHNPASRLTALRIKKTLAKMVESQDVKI
T3 sequence (P36894 24-152 limits assumed): as the sequence (P36894 24-152 limits assumed) above

B1: RSPO2: human R-spondin 2 protein (SEQ ID NO:1); conditioned medium or recombinant (Peprotech 120-43) (protein, listed as Homo sapiens)
chain: MQFRLFSFALIILNCMDYSHCQGNRWRRSKRASYVSNPICKGCLSCSKDNGCSRCQQKLFFFLRREGMRQYGECLHSCPSGYYGHRAPDMNRCARCRIENCDSCFSKDFCTKCKVGFYLHRGRCFDECPDGFAPLEETMECVEGCEVGHWSEWGTCSRNNRTCGFKWGLETRTRQIVKKPVKDTILCPTIAESRRCKMTMRHCPGGKRTPKAKEKRNKKKKRKLIERAQEQHSVFLATDRANQ
ZNRF3 and ALK3^ECD
  ZNRF3 interaction with ALK3 in the presence of the protein: interacted with ALK3
ID1
  expression of ID1: decreased
Smad1
  phosphorylation of Smad1: decreased phosphorylation of Smad1
ALK3RD
  BMP signaling induced by constitutively active ALK3: specifically inhibited
BMP4 signaling; HEPG2 cells, BMP4 stimulation, treatment with RSPO protein
  BMP4 signaling: decreased BMP4 signaling
BMP4 signaling; siRNA knockdown of β-catenin, LGR4/5, LRP5/6, DVL1/2/3 and ROR1/2
  inhibition of BMP signaling by RSPO2 after knockdown of WNT pathway components: remained unaffected
[1]
  Kd: ~4.8 nM
